Changes are numbered by the printed parent chain.
B1: TCE-4 (bispecific antibody)
light: not shown
heavy: EVQLVESGGGLVQPGGSLRLSCAASGFSITSDYAWNWVRQAPGKGLEWVGYISNSGSISYNPSLKSRFTISRDNSKNTLYLQMNSLRAEDTAVYYCARERNYDYDDYYYAMDYWGQGTLVTVSSASTKGPSVFPLAPSSKSTSGGTAALGCLVKDYFPEPVTVSWNSGALTSGVHTFPAVLQSSGLYSLSSVVTVPSSSLGTQTYICNVNHKPSNTKVDKKVEPKSC
B2: TCE-76 (bispecific antibody)
light: not shown
heavy: QVQLVQSGAEVKKPGASVKVSCKASGYTFSTYWIEWVRQAPGQRLEWMGEILPGSGQTDFNEKFQGRVTFTADTSSDTAYMELSSLRSEDTAVYYCTRWGYYGTRGYFNVWGQGTLVTVSSASTKGPSVFPLAPSSKSTSGGTAALGCLVKDYFPEPVTVSWNSGALTSGVHTFPAVLQSSGLYSLSSVVTVPSSSLGTQTYICNVNHKPSNTKVDKKVEPKSC
B3: TCE-69 (bispecific antibody)
light: DIQMTQSPSSLSASVGDRVTITCKSSQSLLYRSNQKNYLAWYQQKPGKAPKLLIYWASTRESGVPSRFSGSGSGTDFTLTISSLQPEDFATYYCQQYYNYPRTFGQGTKVEIKRTVAAPSVFIFPPSDRKLKSGTASVVCLLNNFYPREAKVQWKVDNALQSGNSQESVTEQDSKDSTYSLSSTLTLSKADYEKHKVYACEVTHQGLSSPVTKSFNRGEC
chain: not shown
heavy: not shown
B4: TCE-55 (bispecific antibody)
light: not shown
heavy: B1 heavy with A24V, F27Y, I58T, N74T
B5: TCE-58 (bispecific antibody)
light: not shown
heavy: B1 heavy with A24V, F27Y, I58T, N74T
B6: TCE-75 (bispecific antibody)
light: EIVLTQSPATLSLSPGERATLSCRASSSVSYMHWFQQKPGQAPRLLIYSTSNLASGIPARFSGSGSGTDYTLTISSLEPEDFAVYYCQQRRSFPYTFGQGTKLEIKRTVAAPSVFIFPPSDEQLKSGTASVVCLLNNFYPREAKVQWKVDNALQSGNSQESVTEQDSKDSTYSLSSTLTLSKADYEKHKVYACEVTHQGLSSPVTKSFNRGEC
heavy: not shown
B7: TCE-26 (bispecific antibody)
light: not shown
heavy: B1 heavy with A24V, F27Y, I58T, N74T
B8: TCE-83 (bispecific antibody)
light: not shown
heavy: B1 heavy with A24V, F27Y, I58T, N74T
B9: TCE-82 (bispecific antibody)
light: not shown
heavy: B1 heavy with A24V, F27Y, I58T, N74T
B10: TCE-81 (bispecific antibody)
light: not shown
heavy: B1 heavy with A24V, F27Y, I58T, N74T
B11: TCE-80 (bispecific antibody)
light: not shown
heavy: B1 heavy with A24V, F27Y, I58T, N74T
B12: TCE-85 (bispecific antibody)
light: not shown
heavy: B1 heavy with A24V, F27Y, I58T, N74T
B13: TCE-87 (bispecific antibody)
light: not shown
heavy: B1 heavy with A24V, F27Y, I58T, N74T
B14: TCE-86 (bispecific antibody)
light: not shown
heavy: B1 heavy with A24V, F27Y, I58T, N74T
B15: TCE-79 (bispecific antibody)
light: not shown
heavy: B1 heavy with A24V, F27Y, I58T, N74T
B16: TCE-88 (bispecific antibody)
light: not shown
heavy: B1 heavy with A24V, F27Y, I58T, N74T
B17: TCE-89 (bispecific antibody)
light: not shown
heavy: B1 heavy with A24V, F27Y, I58T, N74T
B18: TCE-84 (bispecific antibody)
light: not shown
heavy: B1 heavy with A24V, F27Y, I58T, N74T
B19: TCE-90 (bispecific antibody)
light: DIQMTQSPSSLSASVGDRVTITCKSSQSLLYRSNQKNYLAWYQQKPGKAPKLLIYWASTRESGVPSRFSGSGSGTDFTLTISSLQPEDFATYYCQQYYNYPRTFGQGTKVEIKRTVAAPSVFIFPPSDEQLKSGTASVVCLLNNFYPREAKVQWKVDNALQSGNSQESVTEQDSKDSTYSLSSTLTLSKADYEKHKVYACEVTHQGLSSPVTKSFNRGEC
heavy 1: EVQLVESGGGLVQPGGSLRLSCAVSGYSITSDYAWNWVRQAPGKGLEWVGYISNSGSTSYNPSLKSRFTISRDTSKNTLYLQMNSLRAEDTAVYYCARERNYDYDDYYYAMDYWGQGTLVTVSSASTKGPSVFPLAPSSKSTSGGTAALGCLVKDYFPEPVTVSWNSGALTSGVHTFPAVLQSSGLYSLSSVVTVPSSSLGTQTYICNVNHKPSNTKVDKKVEPKSCDKTHTCPPCPAPELLGG
chain: not shown
heavy 2: not shown
B20: TCE-93 (bispecific antibody)
light: B6 light
heavy 1: QVQLVQSGAEVKKPGASVKVSCKASGYTFSTYWIEWVRQAPGQRLEWMGEILPGSGQTDFNEKFQGRVTFTADTSSDTAYMELSSLRSEDTAVYYCTRWGYYGTRGYFNVWGQGTLVTVSSASTKGPSVFPLAPSSKSTSGGTAALGCLVKDYFPEPVTVSWNSGALTSGVHTFPAVLQSSGLYSLSSVVTVPSSSLGTQTYICNVNHKPSDTKVDKKVEPKSCDKTHTCPPCPAPPVAGPSVFLFPPKPKDTLMISRTPEVTCVVVDVKHEDPEVKFNWYVDGVEVHNAKTKPCEEEYGSTYRCVSVLTVLHQDWLNGKEYKCKVSNKALPAPIEKTISKAKGQPREPQVYTLPPSREEMTKNQVSLTCDVSGFYPSDIAVEWESDGQPENNYKTTPPVLDSDGSFFLYSKLTVDKSRWEQGDVFSCSVMHEALHNHYTQKSLSLSPGK
heavy 2: QVQLVQSGAEVKKPGASVKVSCKASGYTFSTYWIEWVRQAPGQRLEWMGEILPGSGQTDFNEKFQGRVTFTADTSSDTAYMELSSLRSEDTAVYYCTRWGYYGTRGYFNVWGQGTLVTVSSASTKGPSVFPLAPSSKSTSGGTAALGCLVKDYFPEPVTVSWNSGALTSGVHTFPAVLQSSGLYSLSSVVTVPSSSLGTQTYICNVNHKPSNTKVDKKVEPKSCGGGGSGGGGSEVQLVESGGGLVQPGGSLRLSCAASGFTFSTYAMNWVRQAPGKGLEWVGRIRSKYNNYATYYADSVKGRFTISRDDSKNTLYLQMNSLRAEDTAVYYCVRHGNFGDSYVSWFAYWGQGTLVTVSSGKPGSGKPGSGKPGSGKPGSQAVVTQEPSLTVSPGGTVTLTCGSSTGAVTTSNYANWVQQKPGKSPRGLIGGTNKRAPGVPARFSGSLLGGKAALTISGAQPEDEADYYCALWYSNHWVFGGGTKLTVLGGGGSGGGGSKTHTCPPCPAPPVAGPSVFLFPPKPKDTLMISRTPEVTCVVVDVKHEDPEVKFNWYVDGVEVHNAKTKPCEEQYGSTYRCVSVLTVLHQDWLNGKEYKCKVSNKALPAPIEKTISKAKGQPREPQVYTLPPSREQMTKNQVKLTCLVKGFYPSDIAVEWESNGQPENNYKTTPPVLDSDGSFFLYSKLTVDKSRWQQGNVFSCSVMHEALHNHYTQKSLSLSPGK

These binders were tested against T1, six-transmembrane epithelial antigen of the prostate-1 (STEAP-1) (UniProt Q9UHE8 1-339, limits assumed) (assay: cell-based or functional assay).
T1 sequence (Q9UHE8 whole entry): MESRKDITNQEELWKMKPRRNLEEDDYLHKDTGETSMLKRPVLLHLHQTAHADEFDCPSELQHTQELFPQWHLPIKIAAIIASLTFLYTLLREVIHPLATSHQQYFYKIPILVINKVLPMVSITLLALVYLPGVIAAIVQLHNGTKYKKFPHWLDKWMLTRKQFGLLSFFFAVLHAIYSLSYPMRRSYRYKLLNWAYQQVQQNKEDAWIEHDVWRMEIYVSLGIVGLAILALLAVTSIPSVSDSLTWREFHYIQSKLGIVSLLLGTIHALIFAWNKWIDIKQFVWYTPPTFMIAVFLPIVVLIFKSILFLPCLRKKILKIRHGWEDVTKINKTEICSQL

With B1 the “IC50 (pM), VCaP tumor cell killing in the presence of CD8+ T cells” value was greater than 10000 pM.

Biological target: T1, six-transmembrane epithelial antigen of …
Assay: cell-based or functional assay
Remark: another data set of the same source

Going from B2 to B3, the “Cell line cytotoxicity EC50 (pM), LNCaP” value rises from 7.9 pM to 89.1 pM.

First: B4
Second: B5
The “Cell line cytotoxicity EC50 (pM), LNCaP” value of the first is higher: 1310 pM for the first, 44.5 pM for the second.

Compared with B1, B6 is lower in “Cell line cytotoxicity EC50 (pM), LNCaP” value: 2220 pM for the first, 5.2 pM for the second.

First: B3
Second: B5
The “Cell line cytotoxicity EC50 (pM), 22RV1” value of the first is higher: 359 pM for the first, 332 pM for the second.

For B1, the “Cell line cytotoxicity EC50 (pM), 22RV1” value was greater than 10000 pM.

First: B3
Second: B1
The “Cell line cytotoxicity EC50 (pM), IM-95” value of the first is lower: 11.2 pM for the first, 648 pM for the second.

For B1, the “Cell line cytotoxicity EC50 (pM), VCaP” value was greater than 10000 pM.

Biological target: T1, six-transmembrane epithelial antigen of …
Assay: cell-based or functional assay
Remark: another data set of the same source

With B1 the “IC50 (pM), LNCaP tumor cell killing in the presence of CD8+ T cells” value was 1710 pM.

Biological target: T1, six-transmembrane epithelial antigen of …
Assay: cell-based or functional assay
Remark: another data set of the same source

Compared with B7, B19 is lower in “Cell line cytotoxicity EC50 (pM), 22RV1” value: 2100 pM for the first, 171 pM for the second.

In the case of B20, the “Cell line cytotoxicity EC50 (pM), 22RV1” value is reported as 23.2 pM.

Compared with B7, B19 is lower in “Cell line cytotoxicity EC50 (pM), A673” value: 45.8 pM for the first, 17.3 pM for the second.

B20 was tested, and the “Cell line cytotoxicity EC50 (pM), A673” value was 0.9 pM.

Compared with B7, B20 is lower in “Cell line cytotoxicity EC50 (pM), C4-2B” value: 1150 pM for the first, 0.4 pM for the second.

Compared with B7, B19 is lower in “Cell line cytotoxicity EC50 (pM), IM-95” value: 147 pM for the first, 11.6 pM for the second.

In the case of B20, the “Cell line cytotoxicity EC50 (pM), IM-95” value is reported as 3.6 pM.

Compared with B7, B8 is lower in “Cell line cytotoxicity EC50 (pM), LNCaP” value: 585 pM for the first, 209 pM for the second.

Going from B9 to B10, the “Cell line cytotoxicity EC50 (pM), LNCaP” value rises from 214 pM to 239 pM.

Going from B11 to B12, the “Cell line cytotoxicity EC50 (pM), LNCaP” value rises from 260 pM to 360 pM.

Going from B13 to B14, the “Cell line cytotoxicity EC50 (pM), LNCaP” value falls from 235 pM to 232 pM.

First: B15
Second: B16
The “Cell line cytotoxicity EC50 (pM), LNCaP” value of the first is lower: 163 pM for the first, 183 pM for the second.

Compared with B17, B18 is higher in “Cell line cytotoxicity EC50 (pM), LNCaP” value: 123 pM for the first, 192 pM for the second.

Compared with B19, B20 is lower in “Cell line cytotoxicity EC50 (pM), LNCaP” value: 68.5 pM for the first, 0.2 pM for the second.

B20 was tested, and the “Cell line cytotoxicity EC50 (pM), VCaP” value was 1.2 pM.

Biological target: T1, six-transmembrane epithelial antigen of …
Assay: cell-based or functional assay
Remark: another data set of the same source

B1 was tested, and the “IC50 (pM), 22Rv1 tumor cell killing in the presence of CD8+ T cells” value was greater than 10000 pM.

Biological target: T1, six-transmembrane epithelial antigen of …
Assay: cell-based or functional assay
Remark: another data set of the same source

Going from B7 to B4, the “EC50/pM, LNCaP tumor cell killing” value rises from 585 pM to 1310 pM.

Going from B8 to B9, the “EC50/pM, LNCaP tumor cell killing” value rises from 209 pM to 214 pM.

First: B10
Second: B11
The “EC50/pM, LNCaP tumor cell killing” value of the first is lower: 239 pM for the first, 260 pM for the second.

Compared with B5, B12 is higher in “EC50/pM, LNCaP tumor cell killing” value: 45 pM for the first, 361 pM for the second.

Going from B13 to B14, the “EC50/pM, LNCaP tumor cell killing” value falls from 235 pM to 233 pM.

Going from B15 to B16, the “EC50/pM, LNCaP tumor cell killing” value rises from 163 pM to 183 pM.

Compared with B17, B18 is higher in “EC50/pM, LNCaP tumor cell killing” value: 123 pM for the first, 192 pM for the second.

Source: US20260217864A1 (JANUX THERAPEUTICS, published 2026)
